Measured values reported in paper PMC9409550.

Tests used:
Test in all cases: flow cytometry on cells
[1] = molecular target: BANAL-103 RBD, yeast-displayed (bat sarbecovirus BANAL-103)
[2] = molecular target: BANAL-236 RBD, yeast-displayed (bat sarbecovirus BANAL-236)
[3] = molecular target: Khosta-2 RBD, yeast-displayed (bat sarbecovirus Khosta-2)
[4] = molecular target: Rs4874 RBD, yeast-displayed (bat sarbecovirus Rs4874)
[5] = molecular target: WIV16 RBD, yeast-displayed (bat sarbecovirus WIV16)

CDY14HL-Fc1, sequence (Q9BYF1 18-615): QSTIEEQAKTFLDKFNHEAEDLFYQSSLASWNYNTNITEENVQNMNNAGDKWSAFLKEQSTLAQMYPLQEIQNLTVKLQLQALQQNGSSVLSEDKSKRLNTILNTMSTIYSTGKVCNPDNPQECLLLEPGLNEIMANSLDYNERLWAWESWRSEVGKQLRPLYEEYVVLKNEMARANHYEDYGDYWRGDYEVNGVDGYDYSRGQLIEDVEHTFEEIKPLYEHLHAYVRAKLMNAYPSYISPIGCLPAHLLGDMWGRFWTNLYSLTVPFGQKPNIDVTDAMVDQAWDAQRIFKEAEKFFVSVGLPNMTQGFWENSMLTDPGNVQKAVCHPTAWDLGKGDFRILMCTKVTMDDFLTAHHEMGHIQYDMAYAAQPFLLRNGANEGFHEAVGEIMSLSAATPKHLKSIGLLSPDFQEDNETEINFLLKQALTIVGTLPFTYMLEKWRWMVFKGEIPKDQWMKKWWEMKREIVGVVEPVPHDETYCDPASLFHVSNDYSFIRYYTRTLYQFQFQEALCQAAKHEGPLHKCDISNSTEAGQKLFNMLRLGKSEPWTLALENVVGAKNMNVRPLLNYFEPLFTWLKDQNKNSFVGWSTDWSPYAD

What does the source list for “CDY14HL-Fc1 (from UniProt Q9BYF1 18-615) (Fc fusion)”?
Kd [1]: 0.3 nM; Kd [2]: 0.24 nM; Kd [3]: 1.9 nM; Kd [4]: 0.23 nM; Kd [5]: 0.24 nM
